Assay results published in patent US20250092140A1 (published 2025).

T1: HuB7H3-Fc (human, UniProt Q5ZPR3 29-245)
T1 chain: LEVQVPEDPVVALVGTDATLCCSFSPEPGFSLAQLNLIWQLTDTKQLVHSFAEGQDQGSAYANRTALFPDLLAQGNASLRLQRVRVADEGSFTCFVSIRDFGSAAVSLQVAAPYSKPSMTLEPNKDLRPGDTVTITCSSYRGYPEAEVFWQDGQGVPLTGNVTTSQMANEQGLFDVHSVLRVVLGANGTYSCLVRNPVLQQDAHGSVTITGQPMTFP

T2: HuB7H3-his (human, UniProt Q5ZPR3 29-245)
T2 chain: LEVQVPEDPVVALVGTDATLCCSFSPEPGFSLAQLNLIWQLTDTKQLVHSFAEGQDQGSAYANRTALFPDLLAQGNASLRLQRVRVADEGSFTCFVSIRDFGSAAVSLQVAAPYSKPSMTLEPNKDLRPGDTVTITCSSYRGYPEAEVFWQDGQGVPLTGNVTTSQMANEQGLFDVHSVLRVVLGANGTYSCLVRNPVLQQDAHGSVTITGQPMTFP

T3: human-NKP30-His (human, UniProt O14931 19-138)
T3 chain: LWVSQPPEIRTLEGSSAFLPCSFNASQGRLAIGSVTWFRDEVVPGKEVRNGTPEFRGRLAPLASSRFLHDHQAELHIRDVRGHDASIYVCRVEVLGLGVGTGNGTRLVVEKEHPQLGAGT


Assays:
[1] = biological target: T1, HuB7H3-Fc; assay: sandwich ELISA; dual binding, HuB7H3-Fc coated, NKP30-his detected
[2] = biological target: T2, HuB7H3-his; assay: ELISA
[3] = biological target: T3, human-NKP30-His; assay: ELISA

EC50 [1] [µg/mL]	EC50 [2] [µg/mL]	EC50 [3] [ng/mL]	Binder
0.445			constructed antibody D28 (bispecific antibody) heavy: not shown light: DIVMTQSPATLSVTPGDRVSLSCRASQSISDYLHWYQQKSHESPRLLIKYASQSISGIPSRFSGSGSGSDFTLSINSVEPEDVGVYYCQNGHSFPLTFGAGTKLELKRTVAAPSVFIFPPSDEQLKSGTASVVCLLNNFYPREAKVQWKVDNALQSGNSQESVTEQDSKDSTYSLSSTLTLSKADYEKHKVYACEVTHQGLSSPVTKSFNRGEC
0.19	0.0526	8.17	constructed antibody A25 (bispecific antibody) heavy: not shown light: DIVMTQSPATLSVTPGDRVSLSCRASQSISDYLHWYQQKSHESPRLLIKYASQSISGIPSRFSGSGSGSDFTLSINSVEPEDVGVYYCQNGHSFPLTFGAGTKLELKRTVAAPSVFIFPPSDEQLKSGTASVVCLLNNFYPREAKVQWKVDNALQSGNSQESVTEQDSKDSTYSLSSTLTLSKADYEKHKVYACEVTHQGLSSPVTKSFNRGEC
		2.58	NKP30 monoclonal antibody (antibody, V domains shown) VH: EVQLVESGGGLVQPGGSLRLSCAASGITFSRSVMGWFRQAPGKLRELVAGITSDDNTDYADSVKGRFTISRDNSKNTLYLQMNSLRAEDTAVYYCNILPDSRLGWGQGTLVTVSS
